The labels stand for the following.
B1: CPEB3 Ribozyme (parent)
chain: UAACAGGGGGCCACAGCAGAAGCGUUCACGUCGCAGCCCCUGUCAGAUUCUGGUGAAUCUGCGAAUUCUGCUGUAUAUCUC

This data set covers variants of B1. Nature of the data set: self-cleavage, relative activity (ratio to wild type); higher = more cleavage; in vitro, sequencing. In outline: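 Libraries of CPEB3 self-cleaving ribozyme mutants came from rounds of error-prone PCR and carried barcodes, which DNA sequencing matched to variants. In vitro transcription used T7 RNA polymerase at 37°C for 5 hours, with a further 15 min in DNase I before EDTA stopped the reaction; the ribozymes cleaved during both steps. The RNA was reverse transcribed with template switching and sequenced on Illumina. Relative activity is the cleaved/total read fraction of a variant divided by that of the unmutated ribozyme, averaged over three batches with at least 5 reads.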
With G33U U43C, the self-cleavage stood at 0.48.

For U54C U58A, the self-cleavage worked out at 0.33.

As for U25C U72G, the self-cleavage was 0.26.

Regarding A21G C23G, the self-cleavage was determined as 0.37. The value for C38U U41A was 0.42.

On to A28C A65G, for which the self-cleavage was 0.24. The value for G9U U31C was 0.13; that for U31A U60A was 0.32; that for U67G U80C was 0.34. In the case of A2U U76C, the self-cleavage amounted to 1.15. Then U1A U67C, with 0.18; and A20C U41C, with 0.29. Then A21G G22A, with 0.17; and C11G A64U, with 0.16. As to U49A U74C, the self-cleavage was determined as 0.95.

G10A C17G: the self-cleavage turned out to be 0.3. The value for A2U A13U was 1.08; that for A15U C32U was 0.4; that for G22U A75G was 0.39. For the variant A20G U66C, the self-cleavage came out at 0.37. A2G U69A: the self-cleavage was 0.33. With U31C C38G, the self-cleavage was 0.16. Then C50A A77U, with 0.67. Take A2G A35G: the self-cleavage turned out to be 1.21. With U31A U41A, the self-cleavage was 0.33. The value for G61C C62U was 0.22; that for G24A A75U was 0.25; that for A18U U78A was 0.36. Then G55U A65U, with 0.31; and G22C U41C, with 0.1.

As for C34U G52U, the self-cleavage was found to be 0.33.

A77U C81A: the self-cleavage was determined as 1.31.

Take C11U U43A: the self-cleavage is 0.68. The value for U25C G30A was 0.33. The value for G30A C39U was 0.21.

As to G55A A77G, the self-cleavage worked out at 0.96. On to U49A A77U, for which the self-cleavage came to 0.9. The value for G16A A28U was 0.21; that for C11U G53C was 0.4. Consider U78C C79U, for which the self-cleavage turned out to be 0.84. On to A57G U76G, for which the self-cleavage turned out to be 1.08. In the case of A13G U66A, the self-cleavage came out at 0.45. Then A35U U76A, with 0.65; and U43C A65U, with 0.19. Then U25C U67A, with 0.25. Then G24A A28G, with 0.25. For C62U U69C, the self-cleavage was 0.32. The value for G19C U78C was 0.71; that for C38U U51A was 0.46; that for C4A U58A was 0.67. Then U49C A56U, with 0.48; and C40A U43C, with 0.14. Then G36C A65G, with 0.13.

On to G24C A75U, for which the self-cleavage was determined as 0.33. Then A56G U78C, with 0.73.

As for G16C U43C, the self-cleavage was 0.21. Then U48C C81U, with 1; and A15C U80A, with 1.22; and A64U U72A, with 0.35. The value for A35U G52U was 0.72. As for A15U U58A, the self-cleavage turned out to be 0.16.

Turning to A28U A57U, the self-cleavage was 0.5. The value for A5G U60G was 0.35. As for U1G U41C, the self-cleavage was found to be 1.01.

As to A3G G16A, the self-cleavage amounted to 0.38. For the variant G16C C37U, the self-cleavage is 0.16.

Take C11G G70U: the self-cleavage came to 0.23. With U41G A57C, the self-cleavage worked out at 0.11.

With U43C G73U, the self-cleavage is 1.2. Then A15U U66C, with 0.23; and A13G G63C, with 0.81; and C12G C38A, with 0.36. Turning to A21C U58A, the self-cleavage was 0.16. The value for C38A U51C was 0.18; that for A2G U43C was 0.34; that for A13C U58C was 0.45. For the variant A35U U69A, the self-cleavage amounted to 0.26. G52A U72A: the self-cleavage was determined as 1.13. In the case of U31C C32A, the self-cleavage was 0.31. Then U54A C71A, with 0.42; and A56U C68U, with 0.55; and G46U A56G, with 0.18. With U41A U54A, the self-cleavage was found to be 0.27.

As for C62G U76C, the self-cleavage came to 0.29. On to A18G U54G, for which the self-cleavage worked out at 0.36. Take C11G U78A: the self-cleavage worked out at 0.8. The value for A18G A47U was 0.44; that for G6U A18C was 0.14; that for U66A U69C was 0.26.

On to A45C G73A, for which the self-cleavage is 1.19. U25G U43C: the self-cleavage came to 0.34. Turning to A28G C68A, the self-cleavage is 0.17. For G24A U72C, the self-cleavage is 0.25. Then A15U G33A, with 0.17; and U43C A47G, with 0.58; and G16U C81U, with 0.35.

With G10A A18C, the self-cleavage was 0.35.

On to A2C U48C, for which the self-cleavage is 0.71. A47U U48G: the self-cleavage was found to be 0.18. Take G36C U69C: the self-cleavage was 0.11. Take C11U A45G: the self-cleavage was 0.2. Then A20G G52U, with 1.12. Then C34U A75G, with 0.18. For U48C C79U, the self-cleavage stood at 0.88. Then G63C U66C, with 0.37; and A21G U67A, with 0.24.

For U41A C79A, the self-cleavage is 0.32.

On to U60C G73C, for which the self-cleavage stood at 0.9. Then U51G U80A, with 1; and A13U A35G, with 1.3; and A20G A57C, with 0.26. For A35G C37A, the self-cleavage was 0.86.

G7A U80C: the self-cleavage came to 0.29. Then A57U G70A, with 0.38; and A15G A35U, with 0.53. Take G7C G24C: the self-cleavage was found to be 0.15.

Turning to U67A U80C, the self-cleavage came out at 0.58. In the case of A28U U60A, the self-cleavage amounted to 0.26. Then C27U U54A, with 0.34; and U25A C32U, with 0.38; and C11U U26A, with 0.36. For the variant C11U A28U, the self-cleavage worked out at 0.34. As to C14U C40A, the self-cleavage amounted to 0.24. The value for U26C G61C was 0.25; that for C38A C40U was 0.22; that for G36U U67A was 0.64.

U48C G70A: the self-cleavage stood at 0.19. For the variant C14A U74C, the self-cleavage was 1.23. For C62U C79G, the self-cleavage is 0.2. The value for G10C C14U was 0.5; that for G9U U26C was 0.19; that for U51A G63U was 1.15. Then C38A U54A, with 0.56; and C23A A28U, with 0.14. Take A35C A75G: the self-cleavage is 0.87.

For the variant A28C A35U, the self-cleavage came to 0.27.

With G22A A35U, the self-cleavage is 0.19. With G42C U43C, the self-cleavage turned out to be 0.14. Consider A13C A47C, for which the self-cleavage was 0.34.

In the case of U69G U72C, the self-cleavage was found to be 0.44. The value for A56U A75G was 0.54; that for G63A U72C was 0.91; that for U48A U66G was 0.43. The value for C17U U41C was 0.32; that for A28C U72A was 0.38. The value for A15U U48C was 0.33; that for A15U A56U was 0.47; that for G9U A35C was 0.14. Consider C50A U66C, for which the self-cleavage stood at 0.3. As to A2U U74C, the self-cleavage was 0.91.

For G6A A28G, the self-cleavage was 0.29. On to U51G A56G, for which the self-cleavage came to 0.65. The value for U69A C81U was 0.84. On to U49A U69A, for which the self-cleavage amounted to 0.34. On to C11A C23U, for which the self-cleavage is 0.06. G24U A45C: the self-cleavage was found to be 0.22. As to A65C U78C, the self-cleavage was determined as 0.15. G53A G70A: the self-cleavage is 0.62.

Consider A28C U66C, for which the self-cleavage was found to be 0.28. Then C17U A75U, with 0.81; and A13U G73A, with 1.23.

With C14U G46U, the self-cleavage stood at 0.27. Then A28C A75G, with 0.49; and A3G A15G, with 0.84; and U1C C68A, with 0.37.

On to C50A U51A, for which the self-cleavage turned out to be 0.84. The value for C37A U60C was 0.09.

These data come from the RNAGym collection of RNA variant scans (doi:10.1093/nar/gkz1192).
